According to patent US20100040637A1:

Biological target: human prominin-1 (CD133) (human) (UniProt O43490)
Experiment: cell-based or functional assay

Chain of UniProt O43490 (O43490 20-865): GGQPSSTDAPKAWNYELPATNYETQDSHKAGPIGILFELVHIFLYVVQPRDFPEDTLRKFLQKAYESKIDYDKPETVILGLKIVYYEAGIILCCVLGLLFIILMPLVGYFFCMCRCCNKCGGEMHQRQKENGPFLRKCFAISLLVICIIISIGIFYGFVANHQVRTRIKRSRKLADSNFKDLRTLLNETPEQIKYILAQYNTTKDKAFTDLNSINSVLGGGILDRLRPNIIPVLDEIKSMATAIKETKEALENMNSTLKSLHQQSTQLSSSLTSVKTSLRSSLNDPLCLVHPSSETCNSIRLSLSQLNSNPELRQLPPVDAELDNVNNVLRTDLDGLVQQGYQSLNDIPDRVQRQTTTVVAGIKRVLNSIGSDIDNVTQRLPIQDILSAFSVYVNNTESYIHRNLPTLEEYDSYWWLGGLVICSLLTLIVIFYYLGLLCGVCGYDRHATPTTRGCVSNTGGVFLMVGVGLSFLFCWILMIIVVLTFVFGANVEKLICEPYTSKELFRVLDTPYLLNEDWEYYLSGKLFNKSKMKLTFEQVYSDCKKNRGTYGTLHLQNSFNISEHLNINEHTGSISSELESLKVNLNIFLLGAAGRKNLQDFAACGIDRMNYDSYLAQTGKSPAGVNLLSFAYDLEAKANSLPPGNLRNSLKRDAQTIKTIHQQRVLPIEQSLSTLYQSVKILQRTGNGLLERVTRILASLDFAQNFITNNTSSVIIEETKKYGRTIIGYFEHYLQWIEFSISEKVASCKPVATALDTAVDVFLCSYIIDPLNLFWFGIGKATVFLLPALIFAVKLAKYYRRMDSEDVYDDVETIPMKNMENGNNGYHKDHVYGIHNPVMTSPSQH

IC50, growth inhibition (3H-thymidine) of Caco-2 cells | Substance | IC50, cytotoxicity (resazurin) on HEK293 cells stably expressing CD133 | IC50, cytotoxicity (rezasurin dye conversion) in Hep3B cells | IC50, cytotoxicity assay in Caco-2 cells
100 ng/mL | AC133-mcMMAF (AC133 conjugated to maleimidocaproyl-MMAF) (antibody) | 1 ng/mL | 6 nM | –
1000 ng/mL | AC133-vcMMAE (AC133 conjugated to maleimidocaproyl-valine-citrulline-p-aminobenzoyl-MMAE) (antibody) | 6 ng/mL | – | –
< 1 ng/mL | AC133-vcMMAF (AC133 conjugated to maleimidocaproyl-valine-citrulline-p-aminobenzoyl-MMAF) (antibody) | 1 ng/mL | 0.35 nM | 3 ng/mL
